Experimental findings from patent publication US20040033566A1 are described below.

In test [1] the target is factor X (UniProt P00742). As to the kind of experiment: cell-based or functional assay.
For test [2], the target named is VIIaGln298 (human) (UniProt P08709). In words: cell-based or functional assay.
For test [3], the target named is VIIaGln298 in complex with TF1-218 (human) (UniProt P08709). In words: cell-based or functional assay.
Test [4] deals with wild-type VIIa in complex with TF1-218 (human) (UniProt P08709). In words: cell-based or functional assay.
Test [5] addresses full-length recombinant human tissue factor (human) (UniProt P13726). As to the kind of experiment: SPR, full-length TF captured by TF9-10H10, VIIa premixed with 10 µM 5L15. For orientation: In SPR one partner is held on a chip, and binding of the other changes the refractive index at the surface.

UniProt P00742, sequence (P00742 41-488 limits assumed): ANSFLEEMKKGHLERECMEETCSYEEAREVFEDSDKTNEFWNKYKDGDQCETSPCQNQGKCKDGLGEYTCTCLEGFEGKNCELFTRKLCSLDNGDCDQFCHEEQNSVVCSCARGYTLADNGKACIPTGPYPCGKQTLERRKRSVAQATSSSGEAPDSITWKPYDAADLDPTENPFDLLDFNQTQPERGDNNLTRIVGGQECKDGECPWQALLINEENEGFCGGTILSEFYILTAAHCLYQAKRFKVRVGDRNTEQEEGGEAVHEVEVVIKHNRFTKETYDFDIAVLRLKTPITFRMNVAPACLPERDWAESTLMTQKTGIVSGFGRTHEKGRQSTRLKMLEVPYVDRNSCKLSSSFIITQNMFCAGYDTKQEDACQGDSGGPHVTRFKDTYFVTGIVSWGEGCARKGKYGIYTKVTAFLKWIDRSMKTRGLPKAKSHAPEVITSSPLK

In the case of “VIIaGln298 bound to phospholipid reconstituted T.F. (from UniProt P08709 61-212; P08709 213-466; P13726 33-295)”, the KM (nM) of factor X activation by VIIa bound to phospholipid reconstituted T.F. in test [1] turned out to be 68 nM.
In test [2], “antithrombin III (from UniProt P01008 33-464)” came in with a time to 50% inhibition of amidolytic activity of free VIIa by 0.5 µM antithrombin III with 5 U/ml heparin of 31 min. The values for the time to 50% inhibition of amidolytic activity of T.F.-VIIa complex by 0.5 µM antithrombin III with 5 U/ml heparin in test [3] and in test [4] were 4.5 min and 6 min, respectively.
Take “wild-type VIIa bound to phospholipid reconstituted T.F. (from UniProt P08709 61-212; P08709 213-466; P13726 33-295)”: in test [1], the KM (nM) of factor X activation by VIIa bound to phospholipid reconstituted T.F. was 61 nM.
As to “wild-type VIIa premixed with 10 µM 5L15 (from UniProt P08709 61-212; P08709 213-466)”, in test [5], the Kd was found to be 800 pM.

Broadly, the Kd is the free concentration of one partner at which half of the binding sites on the other are occupied at equilibrium, for simple one-to-one binding.
